Assay results from US20250154215A1, “PHARMACEUTICAL COMPOSITION FOR TREATING COLITIS OR COLORECTAL CANCER COMPRISING COLON-TARGETED S100A8/A9-DERIVED SPECIFIC PEPTIDE” (Industry-University Cooperation Foundation Hanyang …, priority 2023, published 2025).

Tests used:
[1] = test system: OxaR CRC cells (HT29, HCT116 and SW480); assay: WST-8-based cell viability assay in parental and drug-resistant CRC cell lines
Description: To establish a CRC cell model resistant to oxaliplatin, doxorubicin, or 5-FU, HT29, HT116, and SW480 cells were exposed to progressively increasing concentrations of oxaliplatin, doxorubicin, or 5-FU. The established oxaliplatin, doxorubicin, and 5-FU resistant cells were named OxaR, DoxR, and 5-FuR cells, respectively.
To confirm the inhibitory effect of rCT-S100A8/A9 on oxaliplatin resistance, the present inventors performed a water-soluble tetrazolium-8 (WST-8)-based cell viability assay using parental cells of three CRC cell lines, HT29, HCT-116 and SW480, and their corresponding oxaliplatin-resistant (OxaR) cell lines. OxaR CRC cells (HT29, HCT116 and SW480) were established by long-term exposure of CRC cells to oxaliplatin as described in Example 1.

[2] = type: in vitro ADME; settings: human, 0.5 h
Experimental: Human plasma of each culture tube treated with S100A8/A9 peptide (10 μM) or rCT-S100A8/A9 protein (10 μg/mL) was incubated at 37° C. for 0, 30, and 120 minutes, respectively. At the designated time, an acetonitrile internal standard solution of chlorpropamide was added to each culture tube, and the resulting mixture was shaken with a vortex mixer for five minutes and centrifuged for additional five minutes (14,000 rpm, 4° C.). The supernatant was then injected into an LC-MS/MS system to analyze the plasma stability of the tested substances.

[3] = set-up: species or system BALB/c mice; settings: mouse, in vivo
Experimental: FIGS. 12A-12E show biological effects of rCT-S100A8/9 in tumor-bearing mice. […] Each vertical bar represents the mean±SD of cell viability at each dose. Data is shown as the mean±SD of six experiments. […] HCT116 cells were injected subcutaneously into the flanks of BALB/c mice as described in the Methods section. Mice were administered one or two intraperitoneal doses and sacrificed on day 5. Their expression was assessed by IB in various organs of mice. WCLs were used for IB including αActin. Data is representative of four independent experiments with similar results. […] E-cadherin, N-cadherin, and β-catenin staining of the tumors. […] IgG levels specific for rCT-S100A8/9 or ovalbumin (OVA) were measured using ELISA. […] Serum cytokine levels were measured 30 days after administration. […]
Cytokine content was analyzed in cell culture supernatants and mouse sera using the BD OptEIA ELISA set (BD Pharmingen) to detect TNF-α, IL-6, IL-1β, and IL-18. […]
A major concern with protein therapeutics derived from endogenous human proteins is that they may induce strong anti-therapeutic antibody responses and stimulate undesirable immune responses. […] Therefore, the immunogenicity of rCT-S100A8/A9 was assessed by measuring the production of anti-rCT-S100A8/A9 antibodies in mice immunized with the peptide according to the present invention. […]

[4] = set-up: species or system mice; settings: mouse, in vivo, ip, 1 mg/kg
Experimental: Female C57BL/6 mice with body weight of 16 to 18 g were used for PK studies. S100A8/A9 peptide or rCT-S100A8/A9 protein (1 mg/kg) was administered to the mice by intraperitoneal injection. Whole blood samples ([…]) were collected serially from the orbital vein at 0.17, 0.5, 1, 2, 4, and 6 hours after drug administration. Blood samples were centrifuged at 12,000 rpm for five minutes at 4° C., and plasma was collected. To a 10 μL plasma sample, 20 μL of 0.1% formic acid in acetonitrile was added along with amlodipine, which was an internal standard (IS), at a concentration of 500 ng/mL, and the resulting mixture was vortexed. Samples were then centrifuged at 13,200 rpm for five minutes, and 10 μL aliquots were injected for LC-MS/MS analysis.

[5] = The results of in vitro plasma stability, microsomal stability, CYP inhibition and PK profile of S100A8/A9 peptides and rCT-S100A8/A9 proteins
Experimental: Table printed on a drawing sheet, Fig. 5B
Title: The results of in vitro plasma stability, microsomal stability, CYP inhibition and PK profile of S100A8/A9 peptides and rCT-S100A8/A9 proteins
(§1) The patent's description of the figure: FIGS. 5A and 5B show the drug-like properties of rCT-S100A8/A9. […] Bacteria-purified 6×His-rCT-S100A8/9, rVehicle or rCT was analyzed by Coomassie staining or IB using αHis (bottom, left). BMDMs were incubated with rVehicle, rCT, or rCT-S100A8/9 for the indicated times and at the indicated concentrations, and then cell viability was measured by MTT assay (bottom, right). […] HLM, human liver microsomes; CYP, cytochrome P450. aTmax, arrival time; AUClast, total area under the plasma concentration-time curve from time 0 to the time of the last measurement; Cmax, maximum plasma concentration;
First reader's note: All values were measured after ip dosing of 1 mg/kg in mice (n = 5); the footnote for the raised a is not printed on the sheet, and the title stands once above both tables.

BMDMs = type: cell-based, mouse
Experimental: as §1, with “FIGS.” for “The patent's description of the figure: FIGS.”, “[…],” for “P450. aTmax,”

B1: TWYKIAFQRNRKTWYKIAFQRNRKTWYKIAFQRNRKTWYKIAFQRNRKTWYKIAFQRNRKGGFLVIKGGAHKSHKGGITIITFGGGHHGGFLVIKGGAHKSHKGGITIITFGGGHHGGFLVIKGGAHKSHKGGITIITFGGGHHGG (protein)
chain: TWYKIAFQRNRKTWYKIAFQRNRKTWYKIAFQRNRKTWYKIAFQRNRKTWYKIAFQRNRKGGFLVIKGGAHKSHKGGITIITFGGGHHGGFLVIKGGAHKSHKGGITIITFGGGHHGGFLVIKGGAHKSHKGGITIITFGGGHHGG
modifications: N-terminal 6xHis tag
[1]; 24 h cell viability
  efficacy in doxorubicin-resistant (DoxR) and 5-fluorouracil-resistant (5-FuR) CRC cells: exhibited efficacy against multidrug resistance
[1]; HT29, HCT116, SW480 OxaR, 24 hours
  cell viability of OxaR CRC cells: reduced the viability of OxaR CRC cells
[2]
  plasma stability, remaining: 100%
[3]
  production of pro-inflammatory cytokines: negligible
[4]
  AUC values and half-life: well maintained in the blood at effective drug concentrations
[5]
  PK parameters (ip, 1 mg/kg, mice (n = 5))^a | AUClast: 235.82 ± 51.48 ng·h/mL
  PK parameters (ip, 1 mg/kg, mice (n = 5))^a | Cmax: 213.12 ± 25.38 ng/mL
  PK parameters (ip, 1 mg/kg, mice (n = 5))^a | T1/2: 1.91 ± 0.42 h
  PK parameters (ip, 1 mg/kg, mice (n = 5))^a | Tmax: 0.23 ± 0.0 h
BMDMs
  cell viability: no significant effect on cell viability
